Reference: doi:10.1101/249060 (bioRxiv, 2018)

B1: PafE-PafE linear dimer (PafE_(1-155)-PafE_(1-174)) (other)
chain: MVIGLSTGSDDDDVEVIGGVDPRLIAVQENDSDESSLTDLVEQPAKVMRIGTMIKQLLEEVRAAPLDEASRNRLRDIHATSIRELEDGLAPELREELDRLTLPFNEDAVPSDAELRIAQAQLVGWLEGLFHGIQTALFAQQMAARAQLQQMRQGAGSGNSMVIGLSTGSDDDDVEVIGGVDPRLIAVQENDSDESSLTDLVEQPAKVMRIGTMIKQLLEEVRAAPLDEASRNRLRDIHATSIRELEDGLAPELREELDRLTLPFNEDAVPSDAELRIAQAQLVGWLEGLFHGIQTALFAQQMAARAQLQQMRQGALPPGVGKSGQHGHGTGQYL
B2: His6-PafE, wild type, purified alone (natural protein)
chain: MVIGLSTGSDDDDVEVIGGVDPRLIAVQENDSDESSLTDLVEQPAKVMRIGTMIKQLLEEVRAAPLDEASRNRLRDIHATSIRELEDGLAPELREELDRLTLPFNEDAVPSDAELRIAQAQLVGWLEGLFHGIQTALFAQQMAARAQLQQMRQGALPPGVGKSGQHGHGTGQYL
B3: PafE_(P65G) (natural protein)
chain: MVIGLSTGSDDDDVEVIGGVDPRLIAVQENDSDESSLTDLVEQPAKVMRIGTMIKQLLEEVRAAGLDEASRNRLRDIHATSIRELEDGLAPELREELDRLTLPFNEDAVPSDAELRIAQAQLVGWLEGLFHGIQTALFAQQMAARAQLQQMRQGALPPGVGKSGQHGHGTGQYL
B4: PafE_(F138E) (natural protein)
chain: MVIGLSTGSDDDDVEVIGGVDPRLIAVQENDSDESSLTDLVEQPAKVMRIGTMIKQLLEEVRAAPLDEASRNRLRDIHATSIRELEDGLAPELREELDRLTLPFNEDAVPSDAELRIAQAQLVGWLEGLFHGIQTALEAQQMAARAQLQQMRQGALPPGVGKSGQHGHGTGQYL

Target: the molecule itself
Experiment: SEC

Question: Does B1 bind?
Answer: binds

Question: Does B2 bind?
Answer: binds

Question: Does B3 bind?
Answer: binds

Question: Does B4 bind?
Answer: binds
